This is an account of results in article PMC2954905, “Controlling Cellular P-TEFb Activity by the HIV-1 Transcriptional Transactivator Tat”.

The target of the data set is HEXIM1 (UniProt O94992 1-359). Description: EMSA; EMSA: 50 mM Tris-HCl pH 8.0, 100 mM NaCl, 14.4 mM 2-mercaptoethanol, 20 ng/ul E. coli tRNA, RT; ~2 fmol RNA; 4-5% native PAGE in 0.5x TBE, 2.5% glycerol. As to conditions: protein: recombinant, hairpin. For orientation: In EMSA bound probe runs differently from free probe, usually more slowly.
HEXIM1, sequence (O94992 whole entry): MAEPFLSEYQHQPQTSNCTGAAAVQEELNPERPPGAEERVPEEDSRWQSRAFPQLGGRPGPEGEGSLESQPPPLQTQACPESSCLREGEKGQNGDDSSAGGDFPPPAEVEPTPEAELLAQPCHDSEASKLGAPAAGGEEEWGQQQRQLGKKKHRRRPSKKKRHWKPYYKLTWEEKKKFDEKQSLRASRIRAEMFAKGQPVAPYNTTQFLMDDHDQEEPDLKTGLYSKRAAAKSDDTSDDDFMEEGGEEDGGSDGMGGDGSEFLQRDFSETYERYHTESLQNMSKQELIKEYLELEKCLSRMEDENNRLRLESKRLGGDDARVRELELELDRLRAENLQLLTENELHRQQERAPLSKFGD

Take GGGCCACUGACCCCAUUGAUCGGAAGAUCUGGCUGGCUACAGUGGAUC (structured_RNA) [DHBS]: the binding result (label: 32P, GGAA tetraloop) was “binds”.

B1: 5'HPdm+pm (in vitro) (structured_RNA)
RNA: GGAUGUGAGGGCCUAGACCGACCGACAUCUGUCACCCCAUUGAUCGCCAGGGUUGAUUCGGCUCUAGACCGACGCUAGGCGGGUGUCCCCUUCCUCCCUCACCGCUCCAUG
For the molecule B1, the binding result (label: 32P internal) is on record as “no binding”.
